{
  "source": "patent US7303876B2",
  "about": "(Applera Corporation, priority 2000, dated 2007)",
  "molecules": {"B1": {"name": "Proteinase K: protease (subtilisin), Ambion (protein, UniProt P06873 106-384, looked up)", "Proteinase K": "AAQTNAPWGLARISSTSPGTSTYYYDESAGQGSCVYVIDTGIEASHPEFEGRAQMVKTYYYSSRDGNGHGTHCAGTVGSRTYGVAKKTQLFGVKVLDDNGSGQYSTIIAGMDFVASDKNNRNCPKGVVASLSLGGGYSSSVNSAAARLQSSGVMVAVAAGNNNADARNYSPASEPSVCTVGASDRYDRRSSFSNYGSVLDIFGPGTSILSTWIGGSTRSISGTSMATPHVAGLAAYLMTLGKTTAASACRYIADTANKGDLSNIPFGTVNLLAYNNYQA"}},
  "key": {"slices of liver": {"tested_on": "slices of liver", "experiment": "Maceration of liver slices by reaction compositions at 65° C.", "conditions": "65° C.; for maceration of liver slice: 1 mg/ml Proteinase K, No Additives", "protocol": "Initially, a series of reaction compositions were analyzed for their ability to disaggregate a biological sample, e.g., slices of liver. These reaction compositions comprised 100 mM Tris, pH 8.0, 20 mM dithiothreitol (DTT), and optionally,1 mg/ml Proteinase K, surfactants (e.g., cationic, nonionic and anionic detergents), chaotropes, or the additive 1-methyl-2-pyrollidinone (Sigma). Each reaction compositions was placed in a tube with a slice of liver and then incubated at 65° C. The tubes were observed periodically to determine which reaction compositions were able to efficiently macerate the sample."}, "[1]": {"tested_on": "BoDipy-labeled Casein Conjugate", "experiment": "Proteinase K digestion of BoDipy-labeled Casein Conjugate (fluorescence)", "type": "biochemical", "conditions": "one hour, 60° C.", "text": "An assay was developed to measure the activity of Proteinase K with BoDipy-labeled Casein Conjugate (Enz Check Protease Assay Kit, Product number E6638; Molecular Probes, Eugene, Oreg.). The concentration of fluorescent BoDipy moieties in this derivatized conjugate is sufficiently high so that when the protein is intact, the fluorescence of individual moieties is quenched. Upon digestion of the derivatized casein by a protease, however, peptides containing a lower number of BoDipy dye molecules are released, resulting in an increase in fluorescence. To determine an initial dynamic range for an assay, BoDipy-labeled Casein was digested for one hour with a decreasing concentration of Proteinase K as follows. […] Following a one hour incubation at 60° C. with mixing, 100 μL aliquots were transferred to a 96-well optical plate (MicroAmp® Optical 96-Well Reaction Plate, Applied Biosystems, Foster City, Calif.) and the fluorescence was measured in an ABI Prism 7700 spectrophotometer (Applied Biosystems). The background fluorescence was determined by incubating the substrate in buffer without Proteinase K."}, "Proteinase K": {"biological_target": "T1, Proteinase K (Parengyodontium album, UniProt P06873)", "T1 construct": "purchased Ambion 2546", "experiment": "Effect of surfactants on Proteinase K digestion of dye-labeled casein substrate", "type": "biochemical", "conditions": "water, 0 minutes incubation, ambient temperature", "protocol": "To test the effect of cationic surfactants on the activity of Proteinase K, a series of reaction compositions were prepared as follows. Reaction compositions comprised: Casein BoDipy conjugate (1 μg, 10 ng/μL), 10 mM Tris, pH 8, 20 mM CaCl2, 1% surfactant (shown in Table 2 below) and a dilution series of Proteinase K at concentrations of 20 μg/ml, 5 μg/ml, 1.25 μg/ml, 0.31 μg/ml, 0.078 μg/ml, 0.02 μg/ml and 0.005 μg/ml. […] Reaction tubes were incubated at 60° C. in a 96-well optical plate (MicroAmp® Optical 96-Well Reaction Plate, Applied Biosystems) and the amount of released fluorescence was measured at the indicated time points using an ABI Prism 7700."}},
  "data": [
    {"molecule": "B1", "values": [
      {"measurement": "maceration of liver slice", "setting": "slices of liver; 2-5 hr", "result": 0, "unit": "%"},
      {"measurement": "maceration of liver slice", "setting": "slices of liver; 16-24 hr", "result": 75, "unit": "%"},
      {"measurement": "ability to macerate the liver sample (in words)", "setting": "slices of liver", "result": "effectively digest the liver tissue, but only after extended incubation"},
      {"measurement": "lowest Proteinase K concentration with released fluorescence detected", "setting": "[1]", "result": 50, "unit": "ng/mL"},
      {"measurement": "fluorescence signal plateau", "setting": "[1]; 10 μg/ml BoDipy-labeled Casein Conjugate", "result": "around 30,000 fluorescence units"},
      {"measurement": "proteolytic activity of Proteinase K without surfactant", "setting": "Proteinase K", "result": "high proteolytic activity"}
    ]}
  ]
}
